From publication PMC10866649
Where “and” joins values, the source holds several entries; their conditions need not be identical. Equal entries are not always repeated.

Key:
[1] = molecular target: Human IgG1 Fc bearing the Abdeg mutations (efgartigimod) (human); test: SPR + BLI; Fcs immobilised on chips or captured on biosensors; human or mouse FcRn at 1,600 nM to 50 nM in 2-fold dilutions, pH 6.0; Biacore 3000 and Octet K2 both named
[2] = molecular target: Human IgG1 Fc bearing the F241A mutation, produced in CHO-K1 cells coexpressing hST6GAL1 and hB4GALT1 (human); test: as above
[3] = molecular target: Human IgG1 Fc bearing the Abdeg mutations (Fc^Abdeg, efgartigimod) (human); test: SPR + BLI; Fc immobilised on chips / captured on biosensors; human or mouse FcRn at 1,600 nM to 50 nM in 2-fold dilutions, pH 6.0; Biacore 3000 and Octet K2 are both named
[4] = molecular target: Wild-type human IgG1 Fc (human); test: SPR + BLI; Fcs immobilised on chips or captured on biosensors; human or mouse FcRn at 1,600 nM to 50 nM in 2-fold dilutions, pH 6.0; Biacore 3000 and Octet K2 both named
[5] = molecular target: Specific ICAM-3–grabbing non-integrin-related-1 (SIGN-R1; CD209b) (UniProt Q8CJ91); test: flow cytometry on cells (SIGN-R1+/+ murine BMDMs); conditions: type I FcγRs blocked; PBS control = 1; read off a plot
Specific ICAM-3–grabbing non-integrin-related-1 (SIGN-R1; CD209b), sequence (Q8CJ91 whole entry): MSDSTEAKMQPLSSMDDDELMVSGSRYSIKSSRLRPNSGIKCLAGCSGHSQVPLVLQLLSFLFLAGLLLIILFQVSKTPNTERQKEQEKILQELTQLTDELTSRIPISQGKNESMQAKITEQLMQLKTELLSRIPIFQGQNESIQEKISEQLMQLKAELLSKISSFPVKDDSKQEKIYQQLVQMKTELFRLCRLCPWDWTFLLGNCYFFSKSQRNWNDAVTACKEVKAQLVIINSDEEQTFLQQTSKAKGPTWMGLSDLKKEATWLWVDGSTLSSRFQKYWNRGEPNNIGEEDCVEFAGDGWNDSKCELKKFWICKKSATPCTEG

Mouse neonatal Fc receptor (FcRn), sequence (Q61559 22-297): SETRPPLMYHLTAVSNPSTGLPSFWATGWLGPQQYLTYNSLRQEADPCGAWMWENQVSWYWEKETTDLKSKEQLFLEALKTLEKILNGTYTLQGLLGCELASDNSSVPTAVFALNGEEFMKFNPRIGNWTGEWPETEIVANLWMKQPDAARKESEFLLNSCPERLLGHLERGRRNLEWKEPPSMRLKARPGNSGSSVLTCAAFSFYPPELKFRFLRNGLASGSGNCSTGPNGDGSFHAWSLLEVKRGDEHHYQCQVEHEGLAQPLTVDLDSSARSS
Mouse neonatal Fc receptor (FcRn), sequence (P01887 21-119): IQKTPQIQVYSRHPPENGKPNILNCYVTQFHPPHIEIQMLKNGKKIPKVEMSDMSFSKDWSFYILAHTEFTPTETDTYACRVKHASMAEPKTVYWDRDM
Human neonatal Fc receptor (FcRn), sequence (P55899 24-297): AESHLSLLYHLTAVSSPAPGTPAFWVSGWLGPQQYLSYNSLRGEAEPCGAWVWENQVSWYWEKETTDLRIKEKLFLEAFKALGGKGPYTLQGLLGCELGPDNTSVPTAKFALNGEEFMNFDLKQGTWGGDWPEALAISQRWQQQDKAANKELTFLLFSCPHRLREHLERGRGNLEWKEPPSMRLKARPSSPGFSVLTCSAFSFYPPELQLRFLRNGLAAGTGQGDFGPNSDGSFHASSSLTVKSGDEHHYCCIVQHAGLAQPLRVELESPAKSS
Human neonatal Fc receptor (FcRn), sequence (P61769 21-119): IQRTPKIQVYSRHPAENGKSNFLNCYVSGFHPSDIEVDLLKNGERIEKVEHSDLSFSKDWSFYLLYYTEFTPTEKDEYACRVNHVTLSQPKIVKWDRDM

Substance	Kd [1]	Kd [2]	fold lower KD than that of Fc^F241A/B4ST6 [3] [fold]	further results
Human neonatal Fc receptor (FcRn) (from UniProt P55899 24-297; P61769 21-119)	6 nM	131 nM and 260 nM and 208 nM	–	–
Human neonatal Fc receptor (hFcRn) (from UniProt P55899 24-297)	–	–	39	fold enhanced affinity compared with Fc^F241A and Fc^WT [3]: 96 fold
Mouse neonatal Fc receptor (FcRn) (from UniProt Q61559 22-297; P01887 21-119)	0.27 nM and 0.28 nM and 0.26 nM	50.8 nM and 77.5 nM and 86.7 nM	–	Kd [4]: 51.6 nM and 73.2 nM and 85.8 nM
Mouse neonatal Fc receptor (mFcRn) (from UniProt Q61559 22-297)	–	–	267	fold enhanced affinity compared with human FcRn [3]: > 10 fold
Wild-type human IgG1 Fc (Fc^WT) F241A	–	–	–	response (fold change in MFI (normalized to PBS)) [5]: 1.6
